# Residue numbers refer to the chain shown, from its start.
# B1: L3.PY/H2.QL: anti-BCMA antibody (antibody, V domains shown)
# VH: EVQLLESGGGLVQPGGSLRLSCAASGFTFGSYAMTWVRQAPGKGLEWVSAISGSGGNTFYADQLKGRFTISRDNSKNTLYLQMNSLRAEDTAVYYCARVSPIASGMDYWGQGTLVTVSS
# VL: EIVLTQSPGTLSLSPGERATLSCRASQSVSSSYLAWYQQKPGQAPRLLIYGASSRATGIPDRFSGSGSGTDFTLTISRLEPEDFAVYYCQHYPYPPSFTFGQGTKVEIK
# B2: L3.PY/H3.YA: anti-BCMA antibody (antibody, V domains shown)
# VH: B1 VH with Q63S, L64V, A103Y, S104A
# VL: B1 VL
# B3: L3.PY/L1.AH/H2.HA: anti-BCMA antibody (antibody, V domains shown)
# VH: B1 VH with G53H, S54A, Q63S, L64V
# VL: B1 VL with S31A, S32H
# B4: L3.PY/L1.AH/H2.DY: anti-BCMA antibody (antibody, V domains shown)
# VH: B1 VH with S52D, G53Y, Q63S, L64V
# VL: B1 VL with S31A, S32H
# B5: L3.PY/L1.PS/H2.HA: anti-BCMA antibody (antibody, V domains shown)
# VH: B1 VH with G53H, S54A, Q63S, L64V
# VL: B1 VL with L34P, A35S
# B6: L3.PY/L1.PS/H2.DY: anti-BCMA antibody (antibody, V domains shown)
# VH: B1 VH with S52D, G53Y, Q63S, L64V
# VL: B1 VL with L34P, A35S
# B7: L3.PY/L1.AH/H2.YQ: anti-BCMA antibody (antibody, V domains shown)
# VH: B1 VH with G53Y, S54Q, Q63S, L64V
# VL: B1 VL with S31A, S32H
# B8: L3.PY/L1.PS/H2.QR: anti-BCMA antibody (antibody, V domains shown)
# VH: B1 VH with L64R
# VL: B1 VL with L34P, A35S
# B9: L3.PY/L1.PS/H2.QL: anti-BCMA antibody (antibody, V domains shown)
# VH: B1 VH
# VL: B1 VL with L34P, A35S
# B10: L3.PY/L1.PS/H2.YQ: anti-BCMA antibody (antibody, V domains shown)
# VH: B1 VH with G53Y, S54Q, Q63S, L64V
# VL: B1 VL with L34P, A35S
# B11: L3.PY/L1.PS/H2.LT: anti-BCMA antibody (antibody, V domains shown)
# VH: B1 VH with G53L, S54T, Q63S, L64V
# VL: B1 VL with L34P, A35S
# B12: L3.PY/L1.AH/H2.QR: anti-BCMA antibody (antibody, V domains shown)
# VH: B1 VH with L64R
# VL: B1 VL with S31A, S32H
# B13: L3.PY/H3.AE: anti-BCMA antibody (antibody, V domains shown)
# VH: B1 VH with Q63S, L64V, S104A, G105E
# VL: B1 VL
# B14: L3.PY/L1.AH/H2.LT: anti-BCMA antibody (antibody, V domains shown)
# VH: B1 VH with G53L, S54T, Q63S, L64V
# VL: B1 VL with S31A, S32H
# B15: L3.PY/L1.PS/H3.TAQ: anti-BCMA antibody (antibody, V domains shown)
# VH: B1 VH with Q63S, L64V, A97T, S104A, G105Q
# VL: B1 VL with L34P, A35S
# B16: L3.PY/L1.PS/H3.YA: anti-BCMA antibody (antibody, V domains shown)
# VH: B1 VH with Q63S, L64V, A103Y, S104A
# VL: B1 VL with L34P, A35S
# B17: L3.PY/L1.PS/H3.AE: anti-BCMA antibody (antibody, V domains shown)
# VH: B1 VH with Q63S, L64V, S104A, G105E
# VL: B1 VL with L34P, A35S
# System: cyBCMA
# Assay: Kinetics and affinity of cyBCMA/human IgG interactions by SPR (Bio-Rad Proteon XPR36)
# Assay type: binding, cynomolgus
# Details: 37° C.
Molecule,ka (1/Ms) cyBCMA @ 37° C.,kd (1/s) cyBCMA @37° C.
B1,2.05e+06 M⁻¹ s⁻¹,0.0126 s⁻¹
B2,2.87e+06 M⁻¹ s⁻¹,0.0054 s⁻¹
B3,2.58e+06 M⁻¹ s⁻¹,0.00439 s⁻¹
B4,2.32e+06 M⁻¹ s⁻¹,0.00451 s⁻¹
B5,1.45e+06 M⁻¹ s⁻¹,0.00269 s⁻¹
B6,1.9e+06 M⁻¹ s⁻¹,0.00378 s⁻¹
B7,1.58e+06 M⁻¹ s⁻¹,0.00431 s⁻¹
B8,525000 M⁻¹ s⁻¹,0.00067 s⁻¹
B9,657000 M⁻¹ s⁻¹,0.000636 s⁻¹
B10,2e+06 M⁻¹ s⁻¹,0.00374 s⁻¹
B11,2.17e+06 M⁻¹ s⁻¹,0.00411 s⁻¹
B12,2.2e+06 M⁻¹ s⁻¹,0.00491 s⁻¹
B13,2.82e+06 M⁻¹ s⁻¹,0.00504 s⁻¹
B14,2.19e+06 M⁻¹ s⁻¹,0.00296 s⁻¹
B15,2.58e+06 M⁻¹ s⁻¹,0.00552 s⁻¹
B16,1.77e+06 M⁻¹ s⁻¹,0.00998 s⁻¹
B17,2.46e+06 M⁻¹ s⁻¹,0.00413 s⁻¹

# Molecular target: T1, hBCMA (human BCMA) (Homo sapiens, UniProt Q02223)
# T1 sequence (Q02223 1-184): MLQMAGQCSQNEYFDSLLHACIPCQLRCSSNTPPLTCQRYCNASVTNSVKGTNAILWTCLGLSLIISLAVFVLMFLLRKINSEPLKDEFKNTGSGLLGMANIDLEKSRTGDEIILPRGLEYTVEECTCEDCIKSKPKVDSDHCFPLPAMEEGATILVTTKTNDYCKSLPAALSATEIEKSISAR
# Assay: Kinetics and affinity of hBCMA/human IgG interactions by SPR (Bio-Rad Proteon XPR36)
# Assay type: binding
# Details: huBCMA, 37° C.
# Experimental: All experiments were performed on a Bio-Rad Proteon XPR36 surface Plasmon resonance biosensor (Bio-Rad, Hercules, Calif.). An array of anti-BCMA antibodies was prepared using an amine-coupling method on a Bio-Rad GLC Sensor Chip similar to that described in Abdiche, et al., Anal. Biochem. 411, 139-151 (2011). The analysis temperature for the immobilization was 25° C. and the running buffer was HBS-T+(10 mM HEPES, 150 mM NaCl, 0.05% Tween-20, pH 7.4). Channels were activated in the analyte (horizontal) direction by injecting a mixture of 1 mM ECD and 0.25 mM NHS for 3 minutes at a flow rate of 30 μL/min. IgGs were immobilized on the activated spots by injecting them in the ligand (vertical) direction at 20 μg/mL in 10 mM Acetate pH 4.5 buffer for 1.5 minutes at […]. The activated surfaces were blocked by injecting 1M ethanolamine, pH 8.5 in the analyte direction for 3 minutes at 30 μL/min.
# The analysis temperature for the hBCMA binding analysis was 37° C. or 25° C. in a running buffer of HBS-T+, supplemented with 1 mg/mL BSA. A kinetic titration method was employed for the interaction analysis as described in Abdiche, et al. The hBCMA (human BCMA) analyte was injected in the analyte direction using a series of injections from low to high concentration. The concentrations used were 0.08 nM, 0.4 nM, 2 nM, 10 nM and 50 nM (a 5-membered series, with a 5-fold dilution factor and top concentration of 50 nM). The association time for a given analyte dilution was two minutes. Immediately after the 50 nM hBCMA injection, dissociation was monitored for 2 hours. Prior to the hBCMA analyte injections, buffer was injected 5 times using the same association and dissociation times at the hBCMA analyte cycles to prepare a buffer blank sensorgram for double-referencing purposes (double referencing as described in Myszka, J. Mol. Recognit. 12, 279-284 (1999).
# The sensorgrams were double-referenced and fit to a 1:1 Langmuir with mass transport kinetic titration model in BIAevaluation Software version 4.1.1 (GE Lifesciences, Piscataway, N.J.). The sensorgrams and fits are shown in FIG. 1, and the kinetics and affinity parameters for various anti-BCMA antibodies of the present invention are shown in Tables 6A-6C.
Molecule,ka (1/Ms) huBCMA @ 37° C.,kd (1/s) huBCMA @37° C.
B1,2.64e+06 M⁻¹ s⁻¹,0.00218 s⁻¹
B2,3.15e+06 M⁻¹ s⁻¹,0.00118 s⁻¹
B3,3.33e+06 M⁻¹ s⁻¹,0.00181 s⁻¹
B4,3.05e+06 M⁻¹ s⁻¹,0.00152 s⁻¹
B5,3.3e+06 M⁻¹ s⁻¹,0.0106 s⁻¹
B6,3.22e+06 M⁻¹ s⁻¹,0.00361 s⁻¹
B7,2.42e+06 M⁻¹ s⁻¹,0.00193 s⁻¹
B8,3.97e+06 M⁻¹ s⁻¹,0.103 s⁻¹
B9,1.52e+07 M⁻¹ s⁻¹,0.314 s⁻¹
B10,3.35e+06 M⁻¹ s⁻¹,0.0043 s⁻¹
B11,3.4e+06 M⁻¹ s⁻¹,0.00465 s⁻¹
B12,3.13e+06 M⁻¹ s⁻¹,0.00181 s⁻¹
B13,3.29e+06 M⁻¹ s⁻¹,0.00139 s⁻¹
B14,3.16e+06 M⁻¹ s⁻¹,0.00123 s⁻¹
B15,3.25e+06 M⁻¹ s⁻¹,0.00246 s⁻¹
B16,3.07e+06 M⁻¹ s⁻¹,0.00905 s⁻¹
B17,3.14e+06 M⁻¹ s⁻¹,0.00146 s⁻¹

# From patent US11814435B2, “Therapeutic antibodies and their uses” (PFIZER INC., priority 2015, dated 2023)
